Blank lines part the entries; values can stand above or below the binder they belong to.
Molecular target: T1, human CD38 on cells (human, UniProt P28907 1-300)
T1 construct: also called native CD38; CD38 on LP-1 myeloma cells, CD38-transfected NIH-3T3 cells, blood leukocytes, CD38-transfected DC27.10 cells
Test: flow cytometry on human blood, bound VHH detected with FITC anti-c-myc 9E10, MFI of CD3-negative lymphocytes

binding result: binds
B1: MU725 (VHH)
VHH: DVQLQESGGGLVQAGGSLRLSCAASGFTFDDYVIGWFRQAPGKEREGVSSISNNNSTYYADSVKGRFTIASDNAKNTVYLQMNSLKPEDTAVYYCAADVTLNPFTGWNTRSGPMYRYEYDYWGQGTQVTVSS
notes: His6-Myc-tagged monovalent VHH; also called family 22

binding result: binds
B2: MU737 (VHH)
VHH: DVQLQASGGGLVQAGGSLRLSCAGSGRSFSSYAMGWFRQAPGKAREIVATITRSGGSTNYAVPVKGRFTISRDNAKNTVYLQMSSLKPEDTAVYYCAADRFAVASGTHDLDYWGQGTQVTVSS
notes: His6-Myc-tagged monovalent VHH; also called s-14.1c; family 9

EC50 (read off the curve): ~0.1 nM
B3: MU1053 (VHH)
VHH: DVQLQESGGGLVQAGGSLRLSCTGSGRTFRNYPMAWFRQAPGKEREFVAGITWVGASTLYADFAKGRFTISRDNAKNTVYLQMNSLKPEDTAVYSCAAGRGIVAGRIPAEYADWGQGTQVTVSS
notes: also called L-15.3; I-15.3a

— patent US20190276551A1 (UNIVERSITY MEDICAL CENTER HAMBURG EPPENDORF, published 2019)
